Results from patent US6899878 (GENETICS INSTITUTE, dated 2005).
Changes are numbered by the printed parent chain. Ends that are not written are not given here.

T1: IL-1-R intracellular ligand protein encoded by clone 19w (interaction trap prey) (human, UniProt Q92626 1304-1479)
T1 construct: Prey fusion expressed from pJG4-5 in yeast; believed to be a partial clone of a longer protein
T1 sequence: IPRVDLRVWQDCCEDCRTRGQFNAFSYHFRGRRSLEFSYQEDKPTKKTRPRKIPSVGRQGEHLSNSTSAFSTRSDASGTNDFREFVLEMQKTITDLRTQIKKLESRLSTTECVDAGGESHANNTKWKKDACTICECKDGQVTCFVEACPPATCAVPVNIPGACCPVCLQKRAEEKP

T2: IL-1-R intracellular ligand protein encoded by clone 14w (interaction trap prey) (human, UniProt P17655 450-700)
T2 construct: Prey fusion expressed from pJG4-5 in yeast
T2 sequence: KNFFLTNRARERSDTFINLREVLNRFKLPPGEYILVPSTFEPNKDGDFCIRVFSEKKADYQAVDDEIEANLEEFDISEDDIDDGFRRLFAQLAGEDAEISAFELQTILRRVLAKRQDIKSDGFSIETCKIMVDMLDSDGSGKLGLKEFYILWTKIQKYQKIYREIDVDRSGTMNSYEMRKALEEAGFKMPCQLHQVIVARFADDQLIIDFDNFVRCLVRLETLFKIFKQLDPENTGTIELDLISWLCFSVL

B1: IL-1-R intracellular ligand protein encoded by clone 31w (interaction trap prey) (other, not shown: large carriers)
chain: KKGGKTEQDGYQKPTNKHFTQSPKKSVADLLGSFEGKRRLLLITAPKAENNMYVQQRDEYLESFCKMATRKISVITIFGPVNNSTMKIDHFQLDNEKPMRVVDDEDLVDQRLISELRKEYGMTYNDFFMVLTDVDLRVKQYYEVPITMKSVFDLIDTFQSRIKDMEKQKKEGIVCKEEVGGVLELFPINGSSVVEREDVPAHLVKDIRNYFQVSPEYFSMLLVGKDGNVKSWYPSPMWSMVIVYDLIDSMQLRRQEMAIQQSLGMRCQKMSMQAMVTIVTTKDTRMVTRMTTVIMRVITMDTLTEQKYVTLDSASFLCSC
notes: Prey fusion expressed from pJG4-5 in yeast; believed to be a partial clone of a longer protein
B2: bicoid (unrelated bait) (other, UniProt P09081 2-160, looked up)
chain: AQPPPDQNFYHHPLPHTHTHPHPHSHPHPHSHPHPHHQHPQLQLPPQFRNPFDLLFDERTGAINYNYIRPYLPNQMPKPDVFPSEELPDSLVMRRPRRTRTTFTSSQIAELEQHFLQGRYLTAPRLADLSAKLALGTAQVKIWFKNRRRRHKIQSDQHK
B3: IL-1 receptor p80 (type I) amino acids 477 to 527, wild-type bait from plasmid EG202-IL1R (477-527) (receptor, human, UniProt P14778 494-544, looked up)
chain: QDYEKMPESIKFIKQKHGAIRWSGDFTQGPQSAKTRFWKNVRYHMPVQRRS
modifications: also: fused to LexA (pEG202 bait), residues not given here
notes: range 477-527; positions may be shifted against the UniProt entry; also called WT; original bait; not shown: LexA, fusion partner of baits made in vector pEG202
B4: IL-1 receptor p80 (477-527) mutant bait R518K (receptor, human, UniProt P14778 494-544, looked up)
chain: B3 chain with R42K
modifications: also: fused to LexA (pEG202 bait), residues not given here
notes: range 477-527; not shown: LexA, fusion partner of baits made in vector pEG202
B5: IL-1 receptor p80 (477-527) mutant bait K515R (receptor)
chain: B3 chain with K39R
modifications: also: fused to LexA (pEG202 bait), residues not given here
B6: IL-1 receptor p80 (477-527) mutant bait W514A (receptor, human, UniProt P14778 494-544, looked up)
chain: B3 chain with W38A
modifications: also: fused to LexA (pEG202 bait), residues not given here
notes: as for B4
B7: IL-1 receptor p80 (477-527) mutant bait Y519S (receptor, human, UniProt P14778 494-544, looked up)
chain: B3 chain with Y43S
modifications: also: fused to LexA (pEG202 bait), residues not given here
notes: as for B4

What was measured:
[1] = target: B3; assay: yeast interaction trap, LacZ blueness on plates
Protocol: (§1) Mutations that abolish IL-1R signaling ere introduced into the original bait plasmid, EG202-IL-1R (477–527) (with following amino acid substitutions: F513A, W514A, K515R, R518K, and Y519S) and the ability of the IL-1R intracellular ligands to interact with these mutant proteins was tested in the interaction trap. EGY48 carrying pSH18-34 (lexAop-LacZ) were cotransformed with two plasmids: one carrying 14w, 19w or 31w; the other with bait, EG202-IL1R (477–527), either wild-type or one of the mutants, transformants were then streaked onto CM ura⁻his⁻trp⁻ plates containing galactose/raffinose and β-gal. The strength of interaction (as indicated by the number of "+" signs) was judged by the blueness in the plates (indicator of LacZ expression).

[2] = target: B5; assay: yeast interaction trap, LacZ blueness on plates
Protocol: as §1

bicoid (unrelated bait) = target: B2; assay: yeast interaction trap, bait specificity test
Text: (§2) A WI38 cDNA library was transformed into the reporter strain (EGY48/pSH18-34) containing the bait plasmid EG202-IL1R (477–527). 1.3 million primary transformants were harvested and 7 million colonies were screened. 192 galactose-dependent colonies were isolated. Among these, 51 clones were bait specific (i.e., interacted specifically with the original bait, but not with an unrelated bait, bicoid). These clones were then subjected to DNA sequence analysis. Clones 19w was isolated 6, times, clone 31w twice and clone 14w once.

[3] = target: T1, IL-1-R intracellular ligand protein …; assay: yeast interaction trap, bait specificity test
Text: as §2

[4] = target: T2, IL-1-R intracellular ligand protein …; assay: yeast interaction trap, bait specificity test
Text: as §2

[5] = target: T1, IL-1-R intracellular ligand protein …; assay: yeast interaction trap, LacZ blueness on plates
Protocol: as §1

[6] = target: T2, IL-1-R intracellular ligand protein …; assay: yeast interaction trap, LacZ blueness on plates
Protocol: as §1

Row | binding result [5] | binding result [6] | Binder | also measured
1 | – | – | B1 | binding result [1]: binds; binding result [2]: binds; binding result (bicoid (unrelated bait)): no binding
2 | – | – | B2 | binding result [3]: no binding; binding result [4]: no binding
3 | binds | binds | B3 | –
4 | – | binds | B4 | –
5 | binds | binds | B5 | –
6 | binds | binds | B6 | –
7 | – | binds | B7 | –
